This experiment deals with NagA-GFP-His6 fusion protein (N-acetylglucosamine-6-phosphate deacetylase from Mycobacterium smegmatis with C-terminal TEV-cleavable GFP-His6) (Mycobacterium smegmatis). Kind of experiment: SEC; Superdex 200 16/60, 20 mM Bis-Tris, 300 mM NaCl, 10% glycerol pH 8.0; oligomeric state from the elution profile.

For “NagA-GFP-His6 fusion protein (N-acetylglucosamine-6-phosphate deacetylase from Mycobacterium smegmatis with C-terminal TEV-cleavable GFP-His6) (enzyme)”, the stoichiometry N amounted to 2.
